Results published in publication PMC5456102, “NGR-peptide−drug conjugates with dual targeting properties” (PLoS ONE, 2017).
Positions of bridges follow the written chain, without caps; N, C: chain ends. Residues, ends and D or L forms follow the SMILES beside them. Groups on a side chain read outwards from the residue. Chains are numbered I, II in the order given. *: point of attachment. Daunorubicin(13-NOCH2CO) = COc1cccc2c1C(=O)c1c(O)c3c(c(O)c1C2=O)C[C@@](O)(C(C)=NOCC(=O)*)C[C@@H]3O[C@H]1C[C@H](N)[C@H](O)[C@H](C)O1

Columns and labels:
[1] = non-conjugated cyclic peptides; cited from earlier work
Excerpt: Cyclic NGR peptides are promising candidates as targeting moieties for drug delivery to CD13-positive tumor cells and the tumor neovasculature. Up to now the most widely used NGR peptide conjugates have been based on the disulfide bridge containing cyclic peptide [CNGRC]. The cargo (including tumor necrosis factor (TNF), platina complexes, etc.) is usually attached to the C-terminus of the peptide. Recently, an amide bond containing cyclic NGR peptide ([KNGRE]-NH2) with higher resilience against deamidation has been described, in which cargos such as fluorescent labels or chelated ...

[2] = Lysosomal degradation; type: in vitro ADME; conditions: rat liver lysosomal homogenate, 37°C, LC-MS; for starting conjugate found after 6 h incubation in lysosomal homogenate: 0.2 M NaOAc pH 5.0, 1:1 w/w; for rate of decomposition in lysosomal homogenate / time within which the conjugate decomposed in lysosomal homogenate: 0.2 M NaOAc pH 5.0, conjugate/homogenate 1:1 w/w; for time within which the conjugate decomposed in lysosomal homogenate: conjugate 0.2 μg/μL, samples at 5 min, 72 h; for starting conjugate found after 6 h incubation in lysosomal homogenate / time within which the conjugate decomposed in lysosomal homogenate: 6 h
Protocol: Rat liver lysosomal homogenate was prepared as described previously. Protein concentration was determined with bicinchoninic acid (Pierce BCA protein assay) according to the manufacturer’s protocol (ThermoFisher Scientific, Rockford, IL, USA) and it was 17.4 μg/μL. Degradation of the bioconjugates in the rat liver lysosomal homogenate was determined as follows: i) bioconjugates were dissolved in d.i. water at a concentration of 4 μg/μL, ii) the solutes were further diluted to a concentration of 0.2 μg/μL with 0.2 M NaOAc (pH 5.0), iii) the rat liver lysosomal homogenate was diluted with 0.2 M NaOAc (pH 5.0) to a concentration of 3.48 μg/μL, iv) the homogenate was added to the conjugates (conjugate/lysosomal homogenate ratio = 1:1, w/w), v) the reaction mixtures were incubated at 37°C and aliquots of 13 μL were taken at 5 min, 6 h and 72 h, vi) the reactions were quenched by adding 2 μL of formic acid, followed by LC-MS analysis (Bruker Esquire 3000+; Jasco PU-2085plus system; Supelco Ascentis C18 coloum, 3 μm, 2,1 x 150 mm, 100 Å).
Conjugates for drug targeting with receptor-binding peptides may enter the cells by receptor mediated endocytosis. Endocytic vesicles fuse with lysosomes, which is followed by the degradation of the conjugates by lysosomal enzymes. Cathepsin B is one of the main lysosomal enzymes overexpressed in cancer cells. Therefore, Cathepsin B labile spacers (e.g. GFLG tetrapeptide) are often incorporated between the drug and targeting moiety. We used a rat lysosomal homogenate to study the degradation of conjugates and to follow the release of drug containing metabolites (Fig 9, S9–S14 Figs). […] In addition, a minor peak corresponding to Dau = Aoa-Gly-Phe-OH could also be detected. The peak corresponding to Dau = Aoa-GF-OH was the highest in case of conjugate 1. In contrast to these conjugates, decomposition of the disulfide bond containing conjugate (2) was much slower. […] This slow degradation might be one of the reasons why conjugate 2 is less toxic than conjugate 5, which has the same ring size. […] After 72 h only Dau = Aoa-Gly-OH could be detected in cases of all conjugates.

[3] = tested on: HT-1080 cells; assay: Cellular uptake by flow cytometry; type: cell-based, human; conditions: 10 μM conjugate in FBS supplemented medium, 6 h, 37°C, flow cytometry of Dau fluorescence, live cells (Zombie Violet)
Protocol: (§1) HT-1080 and HT-29 cells were seeded at a 250,000 cells/well density, and were incubated overnight in their culturing media. The following day daunomycin conjugates were dissolved in culturing media (FBS supplemented), and added to the cells immediately at 10 μM final concentration. After 6 h incubation at 37°C the supernatant was removed, cells were washed with PBS and trypsinized with 0.1% trypsin (Gibco® by Life Technologies) for 10 minutes. Trypsinization was terminated with FBS containing medium, then cells were washed and suspended in serum free medium. For live/dead distinction we used Zombie Violet reagent (BioLegend, San Diego, CA). Samples were measured and analyzed with an Attune® Acoustic Focusing Cytometer (ThermoFisher Scientific).
(§2) As daunomycin-conjugates are fluorescent, we were able to follow their cellular uptake with a flow cytometer (Fig 10, S15 Fig). […] The higher uptake of 2 compared to 5 might partly compensate its slower degradation resulting in almost similar bioactivity. […] We speculate that the high cytostatic effect of 3 is explained by its fast decomposition resulting in the active Dau = Aoa-Gly-OH metabolite. […] However, after deamidation the formed isoDGR might be recognized by RGD integrin receptor, that results in moderate cytotoxicity in both cell lines during a longer treatment. […] Taking also the slow metabolite release into account, this observation explains the lack of significant cytostatic effect.
(§3) Fig 10 Direct uptake of daunomycin-conjugates. Normalized uptake values indicate the fold increase of the measured fluorescent units compared to the autofluorescence of empty cells.

[4] = tested on: HT-29 cells; assay: Cellular uptake by flow cytometry; type: cell-based, human; conditions: 10 μM conjugate in FBS supplemented medium, 6 h, 37°C, flow cytometry of Dau fluorescence, live cells (Zombie Violet)
Protocol: as §1, §2, §3

Molecule | chemostability class of the free cyclic NGR peptide (deamidation) [1] | starting conjugate found after 6 h incubation in lysosomal homogenate [2] | rate of decomposition in lysosomal homogenate [2] | cellular uptake in HT-1080 cells [3] | cellular uptake in HT-29 cells [4] | time within which the conjugate decomposed in lysosomal homogenate [2] [h]
c[KNGRE]-NH2 (lariat or depsi) [head-to-side chain amide bond cyclized NGR peptide] | stable |  |  |  |  | 
COc1cccc2c1C(=O)c1c(O)c3c(c(O)c1C2=O)C[C@@](O)(C(C)=NOCC(=O)NCC(=O)N[C@@H](Cc1ccccc1)C(=O)N[C@@H](CC(C)C)C(=O)NCC(=O)NCCCC[C@@H]1NC(=O)CSC[C@@H](C(N)=O)NC(=O)[C@H](CCCNC(=N)N)NC(=O)CNC(=O)[C@H](CC(N)=O)NC1=O)C[C@@H]3O[C@H]1C[C@H](N)[C@H](O)[C@H](C)O1 [compound 4, [CH2CO-K(Dau = Aoa-GFLG)NGRC]-NH2] ({CH2CO}-K([Gly-Leu-Phe-Gly-Daunorubicin(13-NOCH2CO)])NGRC-NH2; thioether N-5) |  | the main components were still the intact conjugates | decomposed very slowly | low cellular uptake | low cellular uptake | 
COc1cccc2c1C(=O)c1c(O)c3c(c(O)c1C2=O)C[C@@](O)(C(C)=NOCC(=O)NCC(=O)N[C@@H](Cc1ccccc1)C(=O)N[C@@H](CC(C)C)C(=O)NCC(=O)N[C@@H](CCCCNC(=O)CNC(=O)CNC(=O)[C@@H]1CSSC[C@H](NC(C)=O)C(=O)N[C@@H](CC(N)=O)C(=O)NCC(=O)N[C@@H](CCCNC(=N)N)C(=O)N1)C(N)=O)C[C@@H]3O[C@H]1C[C@H](N)[C@H](O)[C@H](C)O1 [compound 2, Dau = GFLGK(Ac-[CNGRC]GG)-NH2] (I: Ac-CNGRCGG / II: {Daunorubicin(13-NOCH2CO)}-GFLGK-NH2; disulfide I:1-I:5; amide I:C-II:5) |  | the presence of the starting compound could be detected | much slower | higher accumulation | higher accumulation | 
Ac-CNGRC-NH2 (disulfide 1-5) [Ac-[CNGRC]-NH2, disulfide bridge containing cyclic NGR peptide] | moderately |  |  |  |  | 
COc1cccc2c1C(=O)c1c(O)c3c(c(O)c1C2=O)C[C@@](O)(C(C)=NOCC(=O)NCC(=O)N[C@@H](Cc1ccccc1)C(=O)N[C@@H](CC(C)C)C(=O)NCC(=O)NCCCC[C@@H]1NC(=O)CC[C@@H](C(N)=O)NC(=O)[C@H](CCCNC(=N)N)NC(=O)CNC(=O)[C@H](CC(N)=O)NC1=O)C[C@@H]3O[C@H]1C[C@H](N)[C@H](O)[C@H](C)O1 [compound 6, [K(Dau = Aoa-GFLG)NGRE]-NH2] (K([Gly-Leu-Phe-Gly-Daunorubicin(13-NOCH2CO)])NGRE-NH2; lactam N-5) |  | the main components were still the intact conjugates | decomposed very slowly | low cellular uptake | low cellular uptake | 
c[CH2-CO-KNGRC]-NH2 (sidechain bridge or staple) [thioether bond containing cyclic NGR peptide] | highly labile |  |  |  |  | 
COc1cccc2c1C(=O)c1c(O)c3c(c(O)c1C2=O)C[C@@](O)(C(C)=NOCC(=O)NCC(=O)N[C@@H](Cc1ccccc1)C(=O)N[C@@H](CC(C)C)C(=O)NCC(=O)N[C@@H](CCCCNC(=O)CNC(=O)CNC(=O)[C@@H]1CSCC(=O)N[C@@H](CC(N)=O)C(=O)NCC(=O)N[C@@H](CCCNC(=N)N)C(=O)N1)C(N)=O)C[C@@H]3O[C@H]1C[C@H](N)[C@H](O)[C@H](C)O1 [compound 1, Dau = GFLGK([CH2CO-NGRC]GG)-NH2] (I: {CH2CO}-NGRCGG / II: {Daunorubicin(13-NOCH2CO)}-GFLGK-NH2; amide I:C-II:5; thioether I:N-I:4) |  |  |  | did not show significant cellular uptake | did not show significant cellular uptake | ≤ 6
COc1cccc2c1C(=O)c1c(O)c3c(c(O)c1C2=O)C[C@@](O)(C(C)=NOCC(=O)NCC(=O)N[C@@H](Cc1ccccc1)C(=O)N[C@@H](CC(C)C)C(=O)NCC(=O)N[C@@H](CCCCNC(=O)CNC(=O)CNC(=O)[C@@H]1CSCC(=O)N[C@@H](CCCCN)C(=O)N[C@@H](CC(N)=O)C(=O)NCC(=O)N[C@@H](CCCNC(=N)N)C(=O)N1)C(N)=O)C[C@@H]3O[C@H]1C[C@H](N)[C@H](O)[C@H](C)O1 [compound 3, Dau = GFLGK([CH2CO-KNGRC]GG)-NH2] (I: {CH2CO}-KNGRCGG / II: {Daunorubicin(13-NOCH2CO)}-GFLGK-NH2; amide I:C-II:5; thioether I:N-I:5) |  |  |  | moderate uptake | moderate uptake | ≤ 6
c[CH2-CO-NGRC]-NH2 | highly labile |  |  |  |  | 
